Test results: patent publication KR20210143097A (dated 2021)

T1: CD22 on B-cell lymphoma U2932 cells (UniProt P20273 20-847, limits assumed)
T1 construct: whole, on cells; Endogenous CD22 on the U2932 cell line; also called CD22를 발현하는 비세포림프종 U2932; CD22를 발현하는 U2932 세포
T1 sequence (looked up): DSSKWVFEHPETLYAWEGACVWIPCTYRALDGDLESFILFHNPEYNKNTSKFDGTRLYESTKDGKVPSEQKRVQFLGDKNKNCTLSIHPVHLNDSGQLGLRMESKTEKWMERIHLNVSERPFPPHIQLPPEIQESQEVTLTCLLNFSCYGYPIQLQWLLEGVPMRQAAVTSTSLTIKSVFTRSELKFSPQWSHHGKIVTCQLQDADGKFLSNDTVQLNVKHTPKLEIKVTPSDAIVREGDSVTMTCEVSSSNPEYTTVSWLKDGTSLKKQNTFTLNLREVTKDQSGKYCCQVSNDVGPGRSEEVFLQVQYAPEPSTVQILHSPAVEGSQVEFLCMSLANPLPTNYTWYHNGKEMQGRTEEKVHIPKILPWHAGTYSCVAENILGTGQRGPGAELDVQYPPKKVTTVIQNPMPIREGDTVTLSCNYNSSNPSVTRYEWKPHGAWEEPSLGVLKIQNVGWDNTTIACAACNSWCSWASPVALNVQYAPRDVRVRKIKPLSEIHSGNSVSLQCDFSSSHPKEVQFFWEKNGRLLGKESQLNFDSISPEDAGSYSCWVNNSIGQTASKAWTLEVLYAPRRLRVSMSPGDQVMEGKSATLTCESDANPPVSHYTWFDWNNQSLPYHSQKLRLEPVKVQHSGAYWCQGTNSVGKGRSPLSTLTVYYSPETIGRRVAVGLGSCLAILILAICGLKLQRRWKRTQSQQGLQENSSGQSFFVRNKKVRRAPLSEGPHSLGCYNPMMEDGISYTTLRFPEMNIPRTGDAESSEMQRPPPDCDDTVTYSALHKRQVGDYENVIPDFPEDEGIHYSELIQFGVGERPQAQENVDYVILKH


What was measured:
[1] = target: T1, CD22 on B-cell lymphoma U2932 cells; test: flow cytometry on U2932 cells, 1 ㎍ antibody per 1x10^6 cells, PE anti-mouse IgG secondary
[2] = target: CD22-His tag (CD22 extracellular domain; ACRObiosystems Inc.) (UniProt P20273); test: ELISA, CD22-His tag coated at 100 ng/well, primary antibody 0.4 ㎍/㎖, absorbance at 450 nm

binding result [1]	OD450 측정값 [2]	Binder
binds	2.66	7B5 항체 (antibody, V domains shown, Antibody from a mouse hybridoma, detected with an anti-mouse IgG secondary antibody) VH: EVQLEESGPGLVAPSQSLSITCTVSGFSLTRYDISWIRQPPGKGLEWLGVMWTGGGTNYNSAFMSRLSISRDNSKSQVFLKMNSLQTDDTAIYYCVRSYYGSAMDYWGQGTSVTVSS VL: DIVMTQSSSYLSVSLGGRVTITCKASDHINNWLAWYQQKPGNAPRLLISGATSLETGVPSRFSGSGSGKDYTLSITSLQTEDVATYYCQQHWSTPFTFGSGTKLEIK
binds	1.86	3F11 항체 (antibody, V domains shown, Antibody from a mouse hybridoma, detected with an anti-mouse IgG secondary antibody) VH: EVKLVESGGGLVQPGGSMKLSCVASGFTFSNYWMNWVRQSPEKGLEWVAEIRLKSNNYATHYAESVKGRFTISRDDSKSSVYLQMNNLRAEDTGIYYCTSIYYYGRDYAMDYWGQGTSVTVSS VL: DIVMTQSPAIMSASLGERVTMTCTASSSVSSSYLHWYQQKPGSSPKLWIYSTSNLASGVPARFSGSGSGTSYSLTISSMEAEDAATYYCHQYHRSPYTFGGGTKLEIK
